Reference: patent US20150056222A1 (Regeneron, published 2015)
Numbering of substitutions follows the chain as printed. In names and notes the source's numbering stands.

T1: hPRLR.mmh (soluble monomeric human PRLR) (human)
T1 construct: soluble monomeric construct
T1 chain: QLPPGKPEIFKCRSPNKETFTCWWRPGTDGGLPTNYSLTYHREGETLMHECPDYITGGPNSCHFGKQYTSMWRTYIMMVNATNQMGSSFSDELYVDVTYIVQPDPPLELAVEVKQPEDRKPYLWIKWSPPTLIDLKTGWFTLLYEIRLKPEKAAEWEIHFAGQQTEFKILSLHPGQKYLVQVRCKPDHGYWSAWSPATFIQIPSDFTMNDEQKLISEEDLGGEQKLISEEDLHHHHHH

T2: hPRLR.mFc (soluble dimeric human PRLR) (human)
T2 construct: dimeric construct
T2 chain: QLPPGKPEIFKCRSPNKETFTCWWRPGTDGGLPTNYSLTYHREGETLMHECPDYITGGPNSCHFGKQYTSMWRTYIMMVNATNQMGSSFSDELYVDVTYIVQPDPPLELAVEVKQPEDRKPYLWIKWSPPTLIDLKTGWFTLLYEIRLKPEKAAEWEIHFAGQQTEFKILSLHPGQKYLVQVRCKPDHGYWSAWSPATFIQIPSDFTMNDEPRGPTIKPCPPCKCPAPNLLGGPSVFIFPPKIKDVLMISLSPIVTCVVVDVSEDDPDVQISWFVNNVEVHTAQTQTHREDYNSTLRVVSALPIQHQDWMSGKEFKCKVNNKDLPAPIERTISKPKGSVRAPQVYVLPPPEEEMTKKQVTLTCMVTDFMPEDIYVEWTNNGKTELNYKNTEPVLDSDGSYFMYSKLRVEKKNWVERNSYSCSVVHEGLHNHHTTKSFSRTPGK

T3: mfPRLR.mmh (soluble monomeric macaca fascicularis PRLR) (macaca fascicularis)
T3 construct: soluble monomeric construct; also called macaca fascicularis (mf) PRLR.mmh
T3 chain: T1 chain with I76V, A110T, I125M, I158T, T207I

T4: human prolactin receptor (PRLR) on cells (human, UniProt P16471 25-622)
T4 sequence: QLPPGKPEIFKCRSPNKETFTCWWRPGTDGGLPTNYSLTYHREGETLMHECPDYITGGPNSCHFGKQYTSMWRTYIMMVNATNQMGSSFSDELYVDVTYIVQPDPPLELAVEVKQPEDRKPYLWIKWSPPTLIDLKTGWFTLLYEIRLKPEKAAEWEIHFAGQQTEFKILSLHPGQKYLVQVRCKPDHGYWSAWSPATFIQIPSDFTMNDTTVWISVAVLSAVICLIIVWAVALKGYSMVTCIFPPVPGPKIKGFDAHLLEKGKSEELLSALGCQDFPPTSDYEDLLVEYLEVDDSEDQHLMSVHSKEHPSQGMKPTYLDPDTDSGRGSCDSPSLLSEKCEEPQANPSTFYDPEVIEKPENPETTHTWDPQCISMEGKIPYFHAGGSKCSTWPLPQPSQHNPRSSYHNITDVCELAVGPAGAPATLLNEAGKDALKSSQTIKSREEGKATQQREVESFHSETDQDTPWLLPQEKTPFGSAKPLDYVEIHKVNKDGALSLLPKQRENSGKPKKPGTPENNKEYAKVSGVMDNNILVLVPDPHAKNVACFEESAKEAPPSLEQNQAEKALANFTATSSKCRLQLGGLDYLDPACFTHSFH

T5: mouse PRLR on HEK293 cells (mouse, UniProt Q08501 20-608)
T5 construct: whole, on cells; also called mPRLR; HEK293/mPRLR
T5 sequence (looked up): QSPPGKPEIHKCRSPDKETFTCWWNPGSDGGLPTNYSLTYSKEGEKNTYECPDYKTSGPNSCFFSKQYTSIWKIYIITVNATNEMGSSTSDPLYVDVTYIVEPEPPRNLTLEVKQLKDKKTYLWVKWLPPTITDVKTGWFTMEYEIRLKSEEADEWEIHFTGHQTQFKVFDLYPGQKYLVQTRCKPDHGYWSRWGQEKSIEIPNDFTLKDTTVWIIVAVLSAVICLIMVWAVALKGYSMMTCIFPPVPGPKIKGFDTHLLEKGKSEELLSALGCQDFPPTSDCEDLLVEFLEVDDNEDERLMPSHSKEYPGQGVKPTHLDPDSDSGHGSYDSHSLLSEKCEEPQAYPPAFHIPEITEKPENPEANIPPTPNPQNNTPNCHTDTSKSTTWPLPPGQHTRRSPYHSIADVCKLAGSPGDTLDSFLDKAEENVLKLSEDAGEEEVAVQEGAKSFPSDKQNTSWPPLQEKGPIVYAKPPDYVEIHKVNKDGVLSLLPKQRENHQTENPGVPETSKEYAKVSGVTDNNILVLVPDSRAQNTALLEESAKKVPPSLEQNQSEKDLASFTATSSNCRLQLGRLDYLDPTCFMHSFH

T6: monkey (macaca fascicularis) PRLR on HEK293 cells (macaca fascicularis, UniProt A0A2K5WXK1 25-619)
T6 construct: also called mfPRLR; HEK293/mfPRLR
T6 sequence: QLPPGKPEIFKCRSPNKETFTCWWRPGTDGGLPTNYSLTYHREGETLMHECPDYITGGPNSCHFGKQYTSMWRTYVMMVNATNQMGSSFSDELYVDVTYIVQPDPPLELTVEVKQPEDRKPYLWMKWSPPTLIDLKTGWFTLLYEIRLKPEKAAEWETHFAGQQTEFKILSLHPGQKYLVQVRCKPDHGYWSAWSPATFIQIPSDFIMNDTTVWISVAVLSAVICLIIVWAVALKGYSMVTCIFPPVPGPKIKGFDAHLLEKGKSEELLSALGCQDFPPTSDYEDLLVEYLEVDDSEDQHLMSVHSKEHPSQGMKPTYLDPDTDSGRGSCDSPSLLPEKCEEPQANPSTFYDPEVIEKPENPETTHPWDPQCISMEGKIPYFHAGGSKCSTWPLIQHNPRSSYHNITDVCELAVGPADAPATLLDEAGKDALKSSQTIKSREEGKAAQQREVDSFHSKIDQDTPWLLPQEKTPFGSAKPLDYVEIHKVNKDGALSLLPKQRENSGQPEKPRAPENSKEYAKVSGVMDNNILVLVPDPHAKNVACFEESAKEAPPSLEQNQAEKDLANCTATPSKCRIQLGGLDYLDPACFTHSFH

B1: H1H6795P (antibody, human IgG1, V domains shown)
VH: QVQLVQSGAEVKKPGASVKVSCKASGYTFGTSGITWVRQAPGQGLEWMGWSSAYNGKTDYAQKFQDRVTMTTDTSTTTGYMEMRSLTSDDTAVYYCTTVVRRPFDFWGQGTLVTVSS
VL: DIQMTQSPSSLSASVGDRVTITCRASQDINNFLAWFQQKPGKAPKSLIYAASSLQSGVPSKFSGGGSGTDFALTISSLQPEDFATYYCQQYSSYPITFGQGTRLEIK
notes: human IgG1 Fc (H1H)
B2: H1H6797P (antibody, human IgG1, V domains shown)
VH: EVQLVESGGGLVQPGGSLRLSCIVSGFTFSGSWMSWVRQLPGKGLEWVANIKEDGSDSYYVDSVEGRFTISRDNAKSSLYLQMNSLRVDDTAVYFCARARTVPLHYWGQGTLVTVSS
VL: DIQMTQSPSTLSASVGDRVTITCRASQSINIWLAWYQQKPGKAPKLLIYRASYLESGVPSSFAGGGSGTEFTLTISSLQPDDFGTYYCQHYNSYPFTFGQGTKLEIK
notes: human IgG1 Fc (H1H)
B3: H1H6790P (antibody, human IgG1, V domains shown)
VH: EVQLVESGGGLVQPGGSLRLSCAASGFTFSSYAMTWVRQAPGKGLEWVSAITGSVGNTYYADSVKGRFTISRDNSKNTLYLQMNSLGAEDTAEYYCAKGAGMTTNWYLDLWGRGTLVTVSS
VL: DIVMTQSPDSLAVSLGARATINCKSSQSVLYSSNNQNYLTWYQQKPGQPPKLLIKWASTRESGVPDRFSGSGSGTDFTLTISSLQAEDVAVYYCQQYASSPYTFGQGTKLEIK
notes: human IgG1 Fc (H1H)
B4: H1H6966N (antibody, human IgG1, V domains shown)
VH: QVQLVQSGAEVQKPGASVKVSCKVSGYTLTALSIHWVRQAPGKGLEWMGNFDPGDGETIHAQKFQGRVTMTGDTSTDTAYMELSSLRSEDTAVYYCVGVTFDYWGQGTLVTVSS
VL: EIVMTQSPATLSVSPGERATLSCRASQSVASNLAWYQQKPGQAPRLLLYGASTRATGIPARFSGSGSGTEFTLTISSLQSEDFALYYCQHYNNWPLTFGGGTKVEIK
notes: also called H2M6966N
B5: H1H6804P (antibody, human IgG1, V domains shown)
VH: QVTLKESGPVLVKPTQTLSLTCTVSGFSLSDAGMGVSWIRQPPGKALEWLAHIFSNDGKSYSTSLKSRLTISKDTSKRQVVLTMTNMDPVDTATYYCARIRTGTYSLYLDYWGQGTLVTVSS
VL: DIQMTQSPSSLSASVGDRVTITCRASQSINSYLNWYQQKPGKAPKLLLYFASSLQSGVPSRFSGSGSGTDFTLTISSLQPEDFASYYCQESYSTPWTFGQGTKVEIK
notes: human IgG1 Fc (H1H)
B6: H1H6953N (antibody, human IgG1, V domains shown)
VH: EVQLLESGGGLVQPGGTLRLSCAASGFTFSAYAMSWVRQAPGKGLEWVSSINVRAGDTYYADSVKGRFTISRDNSKNTLFLLMNSLRAEDTAAYYCAKARYSSNWGFDFWGQGTLVTVSS
VL: DIVMTQSPDSLTVSLGARTTINCQSSQTILHSSNNHNYLAWYQQKPGLPPKLLIYWSSTRESGVPDRFSGSGSGTDFTLTISSLQAEDVAIYYCQQYSNTPYTFGQGTKLEIN
notes: also called H1M6953N
B7: H1H6807P (antibody, V domains shown)
VH: QVQLVESGGGVVQPGRSLRLSCAASGFTFSDYNMHWVRQAPGKGLEWVAVIWYDGSNKHYADSVKGRFTISRDNSKNTLYLQMNSLRAEDTAVYYCARDGFTIFGMVLDYWGQGTLVTVSS
VL: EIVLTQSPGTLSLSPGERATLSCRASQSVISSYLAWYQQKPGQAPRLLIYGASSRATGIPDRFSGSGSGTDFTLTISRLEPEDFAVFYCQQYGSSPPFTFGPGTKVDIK
notes: human IgG1 Fc (H1H)

Target: T1, hPRLR.mmh (soluble monomeric human PRLR)
Experiment: SPR, 37C, mAb capture
Description: (§1) Measurements were conducted on a T200 Biacore instrument. Kinetic association (kₐ) and dissociation (kd) rate constants were determined by processing and fitting the data to a 1:1 binding model using Scrubber 2.0 curve fitting software. Binding dissociation equilibrium constants (KD) and dissociative half-lives (t_{1/2}) were calculated from the kinetic rate constants as: KD (M)=kd/kₐ; and […].

Binder	T½ [min]
B1	2
B2	1
B3	4
B4	12
B5	3
B6	9.4
B7	34

Target: T2, hPRLR.mFc (soluble dimeric human PRLR)
Experiment: SPR, 37C, mAb capture
Description: as §1

Binder	T½ [min]
B1	149
B2	93
B3	58
B4	91.3
B5	56
B6	68
B7	105

Target: T3, mfPRLR.mmh (soluble monomeric macaca …)
Experiment: SPR, 37C, mAb capture
Description: as §1

Binder	T½ [min]
B1	2
B2	1
B3	4
B4	9.6
B5	3
B6	4.5
B7	32

target: T4, human prolactin receptor (PRLR) on cells; experiment: cell-based or functional assay

Binder	% Internalization relative to Control I (alexa488 intensity in intracellular vesicles at 37 C, T47D cells) [%]
B1	151
B2	145
B3	147
B4	137
B5	139
B6	154
B7	147

target: T4, human prolactin receptor (PRLR) on cells; experiment: FACS, HEK293/hPRLR cells; further: test concentration or dose not given here

Binder	FACS Cell Binding (Fold Above Background) [fold above background]
B1	1
B2	1
B3	37
B4	29
B5	1
B6	37
B7	32

target: T5, mouse PRLR on HEK293 cells; experiment: FACS, HEK293/mPRLR cells; further: test concentration or dose not given here

Binder	FACS Cell Binding (Fold Above Background) [fold above background]
B1	1
B2	2
B3	1
B4	1
B5	1
B6	2
B7	2

target: T6, monkey (macaca fascicularis) PRLR on …; experiment: FACS, HEK293/mfPRLR cells; further: test concentration or dose not given here

Binder	FACS Cell Binding (Fold Above Background) [fold above background]
B1	22
B2	25
B3	24
B4	18
B5	29
B6	29
B7	27

target: T4, human prolactin receptor (PRLR) on cells; experiment: FACS, T47D cells (native PRLR); further: test concentration or dose not given here

Binder	FACS Cell Binding (Fold Above Background) [fold above background]
B1	34
B2	38
B3	34
B4	31
B5	34
B6	40
B7	34
